Two molecules from patent US20210047432A1 (DIACCURATE, published 2021) can be followed below.

The target of experiment [1] is T1, recombinant human pro-sPLA2-GIB (human, UniProt P04054 16-148).
T1 construct: also called pro-sPLA2-IB; proPLA2-GIB
The experiment is described as follows: competitive ELISA: constant antibody premixed with dilutions of soluble antigen, free antibody caught on antigen-coated plate. How it is done: (§1) Binding affinities of the humanized antibodies to pro-sPLA2-GIB and sPLA2-GIB were measured by plate-based competition immunoassay. For the competition ELISA, briefly, constant amounts of antibody at different levels were premixed with serial dilutions of antigen protein, human sPLA2-GIB or pro-sPLA2-GIB, ranging from 0 to 10 μg/ml, and incubated for two hours at room temperature to reach pseudo-binding equilibrium between the antibody and antigen. These solutions were then transferred to 96-well sPLA2-GIB or pro-sPLA2-GIB pre-coated plates to allow the free-antibody in the mixtures to bind to plate-coated sPLA2-GIB or pro-sPLA2-GIB. The plates were typically coated with 30 to 100 ng of human sPLA2-GIB or pro-sPLA2-GIB protein in PBS solution overnight at 4° C. followed by BSA nonspecific blocking. After washing off excess antibody in solution, plate-bound antibodies were detected with an HRP-conjugated goat anti-mouse IgG or IgA polyclonal antibody reagent and developed using colorimetric substrate. The dependency of the signals on the concentrations of antigen in solution was analyzed with a 4-parameter fit analysis using Prism™ software (Graph Pad) and reported as IC50.
(§2) The respective binding affinities of the humanized antibodies to human pro-sPLA2-GIB and human sPLA2-GIB were measured by plate-based competition immunoassay. Briefly, constant amounts of antibody at different levels were premixed with serial dilutions of antigen proteins to reach pseudo-binding equilibrium between the antibody and antigen. These solutions were then transferred to antigen pre-coated plates to allow the free-antibody in the mixtures to bind to plate-coated sPLA2-GIB or pro-sPLA2-GIB. Plate-bound antibodies were detected with an HRP-conjugated polyclonal antibody. Data were fitted with a 4PL logistic non-linear regression model and the relative IC50 values were estimated from the model (Table 4).

Experiment [2] addresses T2, recombinant human sPLA2-GIB (mature secreted group IB pancreatic phospholipase A2) (human, UniProt P04054 23-148).
T2 construct: also called sPLA2-IB; PLA2-GIB mature form
The experiment is described as above. As for the experimental part: as §1, §2

The target of experiment [3] is T1, recombinant human pro-sPLA2-GIB. Kind of experiment: SPR (BIAcore 2000), antibody captured, antigen in solution. How it is done:
(§3) The affinity constants (KD) of the pro-sPLA2-GIB and sPLA2-GIB binding to the #2B, #2B1 and #2B2 antibodies were determined by surface kinetics on a real-time biosensor surface plasmon resonance assay (BIAcore™). More specifically, the affinity of the antibodies for human pro-sPLA2-IB and sPLA2-IB was measured using a BIAcore® 2000. The antibody was captured on an anti-mouse IgG surface and exposed to various concentrations of recombinant pro-sPLA2-IB and sPLA2-IB protein. Kinetic analysis using BIAevaluation™ software was performed to obtain the association and dissociation rate constants.
(§4) The affinity constants (KD) of the pro-sPLA2-GIB and sPLA2-GIB binding to #2B1 and #2B2 were determined by surface kinetics on a real-time biosensor surface plasmon resonance assay (BIAcore™). The antibody was captured on an anti-mouse IgG surface and exposed to various concentrations of recombinant pro-sPLA2-IB and sPLA2-IB protein. Kinetic analysis using BIAevaluation™ software was performed to obtain the association and dissociation rate constants (Table 7).
(In general: In SPR one partner is held on a chip, and binding of the other changes the refractive index at the surface.)

In experiment [4] the target is T2, recombinant human sPLA2-GIB (mature …). Described as above. As for the experimental part:
as §3, §4

For experiment [5] the target is unchanged. Kind of experiment: cell-based or functional assay.
The target in experiment [6] is T3, human FcγRI (human, UniProt P12314 16-374).
T3 construct: whole, on cells; also called hFcγRI
Kind of experiment: flow cytometry, monomeric IgG (100 ng/mL) on CHO cells expressing the receptor. As for the experimental part: (§5) Monomeric IgG binding was tested by incubating the #2B, #2B1 and #2B2 antibodies (100 ng/mL) with 1×10⁵ CHO cells stably expressing human FcγRs for 30 min on ice. The cells were then washed, detached, fixed, and analyzed by flow cytometry (FACSCalibur; BD Biosciences).
(§6) The binding of monomeric #2B, #2B1 and #2B2 to human FcγRs was tested by flow cytometry by incubating the mAbs with CHO cells stably expressing human FcγRI, FcγRIIA (H131), FcγRIIA(R131), FcγRIIB, FcγRIIIA(F176), FcγRIIIA(V176), FcγRIIIB(NA1), FcγRIIIB(NA2), and FcγRIIIB(SH), (REF P. Bruhns). As presented in FIG. 9, #2B is binding to hFcγRI and hFcγRIIIA(V176) only, whereas no monomeric binding of #2B1 and #2B2 to all tested hFcγRs was observed. Antibody-antigen immune complex was tested by first incubating the mAb with the antigen and then, incubating the immune complexes formed with CHO cells stably expressing human FcγRs. The immune complexe of #2B is binding to all tested hFcγRs, except hFcγRIIB (FIG. 10). Weak binding is observed for immune complex of #2B1 to hFcγRIIIA(V176) (data not shown), whereas no immune complex binding of #2B2 to any tested hFcγRs (data not shown).

The target in experiment [7] is T4, human FcγRIIIA(V176) (human, UniProt P08637 17-254).
T4 construct: whole, on cells; also called hFcγRIIIA(V176)
The experiment is described as above. As for the experimental part: as §5, §6

For experiment [8], the target named is T5, human FcγRIIIA(F176) (human, UniProt P08637 17-254).
T5 construct: whole, on cells
Kind of experiment: flow cytometry, monomeric IgG on CHO cells expressing the receptor. How it is done: as §5, §6
(A flow cytometer gives signals particle by particle.)

Experiment [9] deals with T6, human FcγRIIA (H131) (human, UniProt P12318 34-317).
T6 construct: whole, on cells; Allelic variant with His at 131 (mature numbering as printed)
T6 sequence (looked up): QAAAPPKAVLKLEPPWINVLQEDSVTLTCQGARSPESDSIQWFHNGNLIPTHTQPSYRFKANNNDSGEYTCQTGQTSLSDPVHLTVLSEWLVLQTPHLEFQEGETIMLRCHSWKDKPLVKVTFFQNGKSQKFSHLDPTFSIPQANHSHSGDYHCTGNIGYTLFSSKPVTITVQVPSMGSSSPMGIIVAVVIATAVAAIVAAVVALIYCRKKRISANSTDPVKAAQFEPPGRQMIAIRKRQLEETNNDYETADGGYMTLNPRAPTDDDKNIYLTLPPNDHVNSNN
The experiment is described as above. How it is done: as §5, §6

Experiment [10] addresses T3, human FcγRI. The experiment is described as above. As for the experimental part: as §5, §6
Experiment [11] deals with T7, human FcγRIIB (human, UniProt P31994 43-310).
T7 construct: whole, on cells; also called hFcγRIIB
T7 sequence (looked up): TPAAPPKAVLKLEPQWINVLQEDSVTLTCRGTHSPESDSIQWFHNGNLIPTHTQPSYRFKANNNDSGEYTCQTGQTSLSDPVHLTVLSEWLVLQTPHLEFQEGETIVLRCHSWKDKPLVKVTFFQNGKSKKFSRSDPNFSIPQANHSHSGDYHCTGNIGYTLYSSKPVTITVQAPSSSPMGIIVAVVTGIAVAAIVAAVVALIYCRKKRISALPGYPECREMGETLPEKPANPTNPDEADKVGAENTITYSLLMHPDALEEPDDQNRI
The experiment is described as above. How it is done:
as §5, §6

Experiment [12] concerns the target T8, human FcγRIIIB(NA1) (human, UniProt O75015 17-200).
T8 construct: whole, on cells
The experiment is described as above. How it is done:
as §5, §6

Experiment [13] concerns the target T9, human FcγRIIA(R131) (human, UniProt P12318 34-317).
T9 construct: whole, on cells; Allelic variant with Arg at 131 (so in the source)
T9 sequence (looked up): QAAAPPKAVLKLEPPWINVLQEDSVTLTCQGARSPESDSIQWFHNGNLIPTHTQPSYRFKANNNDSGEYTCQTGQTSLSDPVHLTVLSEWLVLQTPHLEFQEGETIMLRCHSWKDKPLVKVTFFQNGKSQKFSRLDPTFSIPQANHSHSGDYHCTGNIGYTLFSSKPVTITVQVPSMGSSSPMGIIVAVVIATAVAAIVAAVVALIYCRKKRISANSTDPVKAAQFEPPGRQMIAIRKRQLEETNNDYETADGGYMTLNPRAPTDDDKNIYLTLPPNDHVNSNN
The description is as above. How it is done:
as §5, §6

Experiment [14] deals with T10, human FcγRIIIB(NA2) (human, UniProt O75015 17-200).
T10 construct: whole, on cells
The description is as above. As for the experimental part: as §5, §6

Experiment [15] addresses T4, human FcγRIIIA(V176). Described as above. How it is done:
as §5, §6

For experiment [16], the target named is T11, human FcγRIIIB(SH) (human, UniProt O75015 17-200).
T11 construct: whole, on cells
The experiment is described as above. How it is done:
as §5, §6

The IC50 is the concentration that inhibits the measured activity by half. In general, Kd refers to the constant that tells how readily two partners part at equilibrium. A word on the koff: it is the first-order rate constant of dissociation. One may read the kon as the second-order rate constant of association. One may read the t½ as the time needed for the level to fall by half in the phase considered.

T1 sequence (P04054 16-148): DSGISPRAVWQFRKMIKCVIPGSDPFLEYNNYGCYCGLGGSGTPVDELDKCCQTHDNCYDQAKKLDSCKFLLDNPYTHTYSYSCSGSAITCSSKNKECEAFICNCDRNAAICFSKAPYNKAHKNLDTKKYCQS
T2 sequence (P04054 23-148): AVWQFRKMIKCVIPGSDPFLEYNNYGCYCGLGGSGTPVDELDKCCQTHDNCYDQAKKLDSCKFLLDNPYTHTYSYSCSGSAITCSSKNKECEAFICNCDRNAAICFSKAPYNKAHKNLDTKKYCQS
T3 sequence (P12314 16-374): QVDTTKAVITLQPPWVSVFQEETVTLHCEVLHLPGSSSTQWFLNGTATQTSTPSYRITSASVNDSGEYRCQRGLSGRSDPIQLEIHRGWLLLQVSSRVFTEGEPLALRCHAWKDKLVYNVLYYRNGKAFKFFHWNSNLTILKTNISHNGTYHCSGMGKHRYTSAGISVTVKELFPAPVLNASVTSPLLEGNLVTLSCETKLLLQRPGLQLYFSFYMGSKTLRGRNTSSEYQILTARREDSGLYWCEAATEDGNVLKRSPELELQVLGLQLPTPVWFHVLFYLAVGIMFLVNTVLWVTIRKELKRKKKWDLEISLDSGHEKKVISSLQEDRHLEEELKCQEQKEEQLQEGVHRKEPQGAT
T4 sequence (P08637 17-254 F176V limits assumed): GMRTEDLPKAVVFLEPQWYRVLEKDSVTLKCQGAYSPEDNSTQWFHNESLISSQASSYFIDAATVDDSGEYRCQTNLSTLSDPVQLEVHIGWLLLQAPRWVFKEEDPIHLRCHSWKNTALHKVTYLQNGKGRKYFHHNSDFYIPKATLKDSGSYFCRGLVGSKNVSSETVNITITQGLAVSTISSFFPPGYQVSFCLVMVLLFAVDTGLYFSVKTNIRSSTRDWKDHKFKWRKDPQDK
T8 sequence (O75015 other isoform, or with tags, fused parts or gaps): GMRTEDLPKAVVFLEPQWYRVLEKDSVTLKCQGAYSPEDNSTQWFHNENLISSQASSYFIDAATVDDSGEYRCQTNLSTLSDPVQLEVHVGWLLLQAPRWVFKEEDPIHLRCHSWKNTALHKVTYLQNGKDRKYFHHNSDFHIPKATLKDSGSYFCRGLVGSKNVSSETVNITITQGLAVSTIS
T11 sequence (O75015 17-200 N65S/A78D): as the sequence (O75015 other isoform, or with tags, fused parts or gaps) above, with R20S, N49S, A62D, D66N, V90I counted along it
T5 sequence (P08637 17-254): as the sequence (P08637 17-254 F176V limits assumed) above, with V160F counted along it
T10 sequence (O75015 17-200 N65S): as the sequence (O75015 other isoform, or with tags, fused parts or gaps) above, with R20S, N49S, D66N, V90I counted along it

B1: humanized antibody #2B (antibody, human IgG1, kappa)
heavy: not shown
light: EIVMTQSPATLSVSPGERATLSCKASQDVSTAVAWYQQKPGQAPRLLIYWASTRHTGIPARFSGSRSGTEYTLTISSLQSEDFAVYYCQQDYSTPPTFGGGTKVEIKRTVAAPSVFIFPPSDEQLKSGTASVVCLLNNFYPREAKVQWKVDNALQSGNSQESVTEQDSKDSTYSLSSTLTLSKADYEKHKVYACEVTHQGLSSPVTKSFNRGEC
notes: Humanized 14G9, IGHV1-46*01 version B heavy and IGKV3-15*01 version B light; also called Ab #2B; mAb #2B; copies: 2 + 2
B1: the half-maximal inhibitory concentration (IC50) in experiment [1] came to 341 nM. For the same molecule, the IC50 in experiment [2] came to 2.3 nM. For the same molecule, in [3], the dissociation constant Kd is 785 nM, the koff is 0.142 s⁻¹, the kon amounted to 176000 M⁻¹ s⁻¹ and the t½ came to 0.08 min. In experiment [4], the dissociation constant Kd was found to be 0.786 nM, the off-rate (koff) was found to be 0.00225 s⁻¹, the association rate constant (kon) worked out at 2.89e+06 M⁻¹ s⁻¹ and the t½ stood at 5.1 min. Further, in experiment [5], the “EC50 for the restoration of the sPLA2-IB effect on IL-7 induced phosphoSTAT5 nuclear translocation in human CD4 T cells (75 nM sPLA2-GIB)” value came out at 3.7 ng/mL. Moreover, the binding result in experiment [6] was “binds”. In experiment [7], the binding result is on record as “binds”.

B2: humanized antibody #2B2 (mutations L234A, L235E and P331S) (antibody, human IgG1, kappa)
heavy: QVQLVQSGAEVKKPGASVKVSCKASGYTFTNYWIHWVRQAPGQGLEWIGNIDPSDTRTHYNQKFKDRATLTVDKSTSTAYMELSSLRSEDTAVYYCARQTLYYEALDYWGQGTLVTVSSASTKGPSVFPLAPSSKSTSGGTAALGCLVKDYFPEPVTVSWNSGALTSGVHTFPAVLQSSGLYSLSSVVTVPSSSLGTQTYICNVNHKPSNTKVDKRVEPKSCDKTHTCPPCPAPEAEGGPSVFLFPPKPKDTLMISRTPEVTCVVVDVSHEDPEVKFNWYVDGVEVHNAKTKPREEQYNSTYRVVSVLTVLHQDWLNGKEYKCKVSNKALPASIEKTISKAKGQPREPQVYTLPPSREEMTKNQVSLTCLVKGFYPSDIAVEWESNGQPENNYKTTPPVLDSDGSFFLYSKLTVDKSRWQQGNVFSCSVMHEALHNHYTQKSLSLSPGK
light: EIVMTQSPATLSVSPGERATLSCKASQDVSTAVAWYQQKPGQAPRLLIYWASTRHTGIPARFSGSRSGTEYTLTISSLQSEDFAVYYCQQDYSTPPTFGGGTKVEIKRTVAAPSVFIFPPSDEQLKSGTASVVCLLNNFYPREAKVQWKVDNALQSGNSQESVTEQDSKDSTYSLSSTLTLSKADYEKHKVYACEVTHQGLSSPVTKSFNRGEC
notes: #2B with L234A, L235E and P331S in the heavy chain constant region; also called Ab #2B2; #2B2 humanized mAb; copies: 2 + 2
Regarding B2, the binding result in experiment [8], in [9], in experiment [10], in [11], in experiment [12] and in experiment [13] was “no binding (tested: 100 ng/mL)” throughout. The binding result in [14], in experiment [15] and in [16] was “no binding (tested: 100 ng/mL)” in each case. For the same molecule, the Kd in experiment [3] is 880 nM; in experiment [4], 0.796 nM. For the same molecule, the results for the koff in experiment [3] and in [4] were 0.146 s⁻¹ and 0.00247 s⁻¹, respectively. The association rate constant (kon) in experiment [3] worked out at 164000 M⁻¹ s⁻¹; in experiment [4], 3.02e+06 M⁻¹ s⁻¹. Further, the results for the t½ in [3] and in experiment [4] were 0.079 min and 4.7 min, respectively.
